Experiment [1] concerns the target T1, CypA domain of Mafa TRIMCyp2 with Cyp K143E (K446E in TRIMCyp) (Macaca fascicularis).
T1 construct: As m1 but with glutamate at Cyp 143 (the residue of CypA and of Mamu TRIMCyp); also called Mafa TCyp2 K143E; K143E mutant; source: E. coli BL21 (DE3), purified (Ni-NTA, gel filtration), as per the wild-type protein
Nature of the experiment: ITC; MicroCal ITC200; cyclophilin (typical concentration 1.4 mM) in the syringe, capsid (typical concentration 120 µM) in the cell; 50 mM KPO4 pH 7.4, 100 mM NaCl, 1 mM DTT; 15°C; one-state model. Conditions: both partners purified.

Experiment [2] deals with T2, CypA domain of Macaca fascicularis TRIMCyp2 (Mafa TRIMCyp2) (Macaca fascicularis).
T2 construct: Cyp 54, 66, 69 and 143 are TRIMCyp 357, 369, 372 and 446. numbers count on: CypA; Natural allele; also called Mafa TCyp2; Mafa Cyp; source: E. coli BL21 (DE3), purified (Ni-NTA, gel filtration)
Described as above. Conditions: both partners purified.

B1: FIV capsid N-terminal domain (domain or fragment)
chain: PIQTVNGVPQYVALDPKMVSIFMEKAREGLGGEEVQLWFTAFSANLTPTDMATLIMAAPGCAADKEILDESLKQLTAEYDRTHPPDAPRPLPYFTAAEIMGIGLTQEQQAEARFAPARMQCRAWYLEALGKLAAIKAKS
modifications: Unmodified wild-type domain. Strain and limits are not printed: the Petaluma isolate is assumed. The start is the capsid p24 N-terminus (136); the end is set by homology to HIV-1 CA-N 1-146 (pdb 2X83)
As a reminder, the Kd is the constant that tells how readily two partners part at equilibrium. Higher therefore signals a looser complex. In the case of B1, the equilibrium dissociation constant (Kd) is 15 µM in experiment [1] and 27 µM in experiment [2].

For the origin of these results see publication PMC2924388, “Conformational Adaptation of Asian Macaque TRIMCyp Directs Lineage Specific Antiviral Activity” (PLoS Pathogens, 2010).
